In the assay the target is T1, active human ETA (purified) (human, UniProt P25101 21-427).
T1 construct: also called human endothelin receptor type A
T1 sequence: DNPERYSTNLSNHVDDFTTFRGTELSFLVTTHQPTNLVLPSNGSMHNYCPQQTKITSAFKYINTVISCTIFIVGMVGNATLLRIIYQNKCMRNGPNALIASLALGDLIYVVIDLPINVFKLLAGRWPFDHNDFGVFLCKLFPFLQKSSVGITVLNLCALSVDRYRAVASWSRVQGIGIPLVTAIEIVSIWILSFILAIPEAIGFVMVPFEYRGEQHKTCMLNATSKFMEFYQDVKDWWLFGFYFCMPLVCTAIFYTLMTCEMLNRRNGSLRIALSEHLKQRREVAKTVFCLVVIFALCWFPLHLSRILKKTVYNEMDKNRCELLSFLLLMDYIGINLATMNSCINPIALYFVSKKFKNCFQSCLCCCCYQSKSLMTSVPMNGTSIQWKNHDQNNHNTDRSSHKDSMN
Put plainly: ELISA on purified active ETA. The procedure: The cross-binding activities of the developed antibodies to human ETA and mouse ETA were tested by ELISA.
For orientation: In an ELISA, binding on a coated surface is turned into a signal by an enzyme label.

B1: AB9 (antibody, V domains shown)
VH: EVQLVESGAEVRKPGASVKVSCKASGYTFTSSDINWIRQATGQGLEWMGYMNPKNGNTDYAQKFQGRISMTRDSSISTAYMELSSLRSEDTAVYYCAKDRYGSGTYGEGMDVWGPGTLVT
VL: DIVMTQSPSAMSASVGDRVSITCRASQGINNYLAWFQQKPGKVPKRLMDVGSILQSGIPSRFRGRGSGTQFTLTISSLQAEDSGTYFCLQHNTYPLTFGPGTKVEIKR
notes: also called lead antibody
For the molecule B1, the binding result is “binds”.

B2: GG12 (antibody, V domains shown)
VH: EVQLVESGAEVRKPGASVKVSCKASGYTFTSSDINWIRQATGQGLEWMGYMNPKNGNTDYAQKFQGRISMTRDSSISTAYMELSSLRSEDTAVYYCAKDRYGSGVYGFGMDVWGPGTLVT
VL: DIVMTQSPSAMSASVGDRVSITCRASQGINNYLAWFQQKPGKVPKRLMDVGSILQSGIPSRFRGRGSGTQFTLTISSLQAEDSGTYFCLQHNTYPLTFGPGTKVEIKR
notes: also called lead antibody
Turning to B2, the binding result was “binds”.

B3: FG12 (antibody, V domains shown)
VH: EVQLVESGAEVRKPGASVKVSCKASGYTFTSSDINWIRQATGQGLEWMGYMNPKNGNTDYAQKFQGRISMTRDSSISTAYMELSSLRSEDTAVYYCAKDRYGLGTYGFGMDVWGPGTLVT
VL: DIVMTQSPSAMSASVGDRVSITCRASQGINNYLAWFQQKPGKVPKRLMDVGSILQSGIPSRFRGRGSGTQFTLTISSLQAEDSGTYFCLQHNTYPLTFGPGTKVEIKR
notes: also called lead antibody
Turning to B3, the binding result is on record as “binds”.

B4: EF12 (antibody, V domains shown)
VH: EVQLVESGAEVRKPGASVKVSCKASGYTFTSSDINWIRQATGQGLEWMGYMNPKNGNTDYAQKFQGRISMTRDSSISTAYMELSSLRSEDTAVYYCAKDPYGSGTYGFGMDVWGPGTLVT
VL: DIVMTQSPSAMSASVGDRVSITCRASQGINNYLAWFQQKPGKVPKRLMDVGSILQSGIPSRFRGRGSGTQFTLTISSLQAEDSGTYFCLQHNTYPLTFGPGTKVEIKR
notes: also called lead antibody
For the molecule B4, the binding result is “binds”.

The record behind these values is patent publication US20220153831A1 (HEDGEHOG, published 2022).
